The values below come from US20120283317A1 (University of California, published 2012).

Data set [1] deals with the molecule itself. The data set is described as follows: blue-native gel, PNPASE immunoblot (self-assembly). As to the method: Listed are the in vitro effects of mutations on 3′ polymerase and RNA degrading activities as reported by Portnoy et al. (2008) RNA 14: 297-309. […] Radiolabeled RNase P RNA was incubated with isolated yeast mitochondria expressing an empty vector or the listed PNPASE constructs. […] A PORIN immunoblot confirms the co-localization of PNPASE WT and mutants in yeast mitochondria. The assembly state of WT and point mutant PNPASE was determined by solubilization with 1% digitonin and separation on a 6-16% BN gel, followed by PNPASE immunoblot. FIG. 11B (upper) show gels of WT and S484A PNPASE purified from yeast mitochondria using immunoprecipitation. FIG. 11B (lower) show gels of WT or S484A mutant PNPASE was incubated with radiolabeled RNase P RNA for 10 min at 25° C. to assess degradation activity. The asterisk marks degradation products. FIG. 11 C (left) is a gel showing the stability of RNase P RNA imported into mitochondria.
The assembly state of PNPASE was also investigated. […] Soluble proteins were separated on a 6-16% BN gel and PNPASE was detected by immunoblot. […] The PNPASE-HisPC were solubilized with 1% digitonin (Dig) or 0.5% dodecylmaltoside (DDM) and the soluble proteins were separated on a 6-16% BN gel and detected by immunoblot.

Data set [2] concerns the molecule itself. As to the kind of experiment: 1% digitonin, 6-16% blue-native gel, PNPASE immunoblot (self-assembly). The method, then:
Radiolabeled RNase P RNA was incubated with isolated yeast mitochondria expressing an empty vector or the listed PNPASE constructs. […] A PORIN immunoblot confirms the co-localization of PNPASE WT and mutants in yeast mitochondria. The assembly state of WT and point mutant PNPASE was determined by solubilization with 1% digitonin and separation on a 6-16% BN gel, followed by PNPASE immunoblot. FIG. 11B (upper) show gels of WT and S484A PNPASE purified from yeast mitochondria using immunoprecipitation. FIG. 11B (lower) show gels of WT or S484A mutant PNPASE was incubated with radiolabeled RNase P RNA for 10 min at 25° C. to assess degradation activity. The asterisk marks degradation products. FIG. 11 C (left) is a gel showing the stability of RNase P RNA imported into mitochondria.
To determine whether the RNA import or stabilization activity of PNPASE was separable from its RNA processing activities, RNase P RNA import was studied when different PNPASE mutants were expressed in yeast mitochondria (FIG. 11A). The point mutants generated and tested were based on prior studies (Portnoy et al. (2008) RNA 14: 297-309). Mutants D135G and S484A lacked poly-A polymerase and RNA degradation activities in vitro. […] Of the four mutants, PNPASE S484A and R445E/R446E supported the import or stabilization of RNase P RNA, whereas mutants D135G and D544G were defective in this function (FIG. 11A). Based on the prior studies of others, it was expected that mutant D135G would fail to form a trimeric complex from prior studies (Portnoy et al. (2008) RNA 14: 297-309).

B1: human PNPASE (polynucleotide phosphorylase) expressed in yeast mitochondria (enzyme, UniProt Q8TCS8 46-783, looked up)
chain: AVAVDLGNRKLEISSGKLARFADGSAVVQSGDTAVMVTAVSKTKPSPSQFMPLVVDYRQKAAAAGRIPTNYLRREIGTSDKEILTSRIIDRSIRPLFPAGYFYDTQVLCNLLAVDGVNEPDVLAINGASVALSLSDIPWNGPVGAVRIGIIDGEYVVNPTRKEMSSSTLNLVVAGAPKSQIVMLEASAENILQQDFCHAIKVGVKYTQQIIQGIQQLVKETGVTKRTPQKLFTPSPEIVKYTHKLAMERLYAVFTDYEHDKVSRDEAVNKIRLDTEEQLKEKFPEADPYEIIESFNVVAKEVFRSIVLNEYKRCDGRDLTSLRNVSCEVDMFKTLHGSALFQRGQTQVLCTVTFDSLESGIKSDQVITAINGIKDKNFMLHYEFPPYATNEIGKVTGLNRRELGHGALAEKALYPVIPRDFPFTIRVTSEVLESNGSSSMASACGGSLALMDSGVPISSAVAGVAIGLVTKTDPEKGEIEDYRLLTDILGIEDYNGDMDFKIAGTNKGITALQADIKLPGIPIKIVMEAIQQASVAKKEILQIMNKTISKPRASRKENGPVVETVQVPLSKRAKFVGPGGYNLKKLQAETGVTISQVDEETFSVFAPTPSAMHEARDFITEICKDDQEQQLEFGAVYTATITEIRDTGVMVKLYPNMTAVLLHNTQLDQRKIKHPTALGLEVGQEIQVKYFGRDPADGRMRLSRKVLQSPATTVVRTLNDRSSIVMGEPISQSSSNSQ
notes: Homo-oligomer of about 240 kDa on blue-native gels; also called hPNP; WT PNPASE
On to B1, for which, in data set [1], the binding result is on record as “binds”.

B2: human PNPASE mutant D544G (enzyme, UniProt Q8TCS8 46-783, looked up)
chain: AVAVDLGNRKLEISSGKLARFADGSAVVQSGDTAVMVTAVSKTKPSPSQFMPLVVDYRQKAAAAGRIPTNYLRREIGTSDKEILTSRIIDRSIRPLFPAGYFYDTQVLCNLLAVDGVNEPDVLAINGASVALSLSDIPWNGPVGAVRIGIIDGEYVVNPTRKEMSSSTLNLVVAGAPKSQIVMLEASAENILQQDFCHAIKVGVKYTQQIIQGIQQLVKETGVTKRTPQKLFTPSPEIVKYTHKLAMERLYAVFTDYEHDKVSRDEAVNKIRLDTEEQLKEKFPEADPYEIIESFNVVAKEVFRSIVLNEYKRCDGRDLTSLRNVSCEVDMFKTLHGSALFQRGQTQVLCTVTFDSLESGIKSDQVITAINGIKDKNFMLHYEFPPYATNEIGKVTGLNRRELGHGALAEKALYPVIPRDFPFTIRVTSEVLESNGSSSMASACGGSLALMDSGVPISSAVAGVAIGLVTKTDPEKGEIEDYRLLTDILGIEDYNGDMGFKIAGTNKGITALQADIKLPGIPIKIVMEAIQQASVAKKEILQIMNKTISKPRASRKENGPVVETVQVPLSKRAKFVGPGGYNLKKLQAETGVTISQVDEETFSVFAPTPSAMHEARDFITEICKDDQEQQLEFGAVYTATITEIRDTGVMVKLYPNMTAVLLHNTQLDQRKIKHPTALGLEVGQEIQVKYFGRDPADGRMRLSRKVLQSPATTVVRTLNDRSSIVMGEPISQSSSNSQ
notes: Point mutants are based on Portnoy et al. (2008); The numbering scheme is not further defined
On to B2, for which the binding result in data set [2] is “binds”.

B3: human PNPASE mutant D135G (enzyme, UniProt Q8TCS8 46-783, looked up)
chain: AVAVDLGNRKLEISSGKLARFADGSAVVQSGDTAVMVTAVSKTKPSPSQFMPLVVDYRQKAAAAGRIPTNYLRREIGTSDKEILTSRIIGRSIRPLFPAGYFYDTQVLCNLLAVDGVNEPDVLAINGASVALSLSDIPWNGPVGAVRIGIIDGEYVVNPTRKEMSSSTLNLVVAGAPKSQIVMLEASAENILQQDFCHAIKVGVKYTQQIIQGIQQLVKETGVTKRTPQKLFTPSPEIVKYTHKLAMERLYAVFTDYEHDKVSRDEAVNKIRLDTEEQLKEKFPEADPYEIIESFNVVAKEVFRSIVLNEYKRCDGRDLTSLRNVSCEVDMFKTLHGSALFQRGQTQVLCTVTFDSLESGIKSDQVITAINGIKDKNFMLHYEFPPYATNEIGKVTGLNRRELGHGALAEKALYPVIPRDFPFTIRVTSEVLESNGSSSMASACGGSLALMDSGVPISSAVAGVAIGLVTKTDPEKGEIEDYRLLTDILGIEDYNGDMDFKIAGTNKGITALQADIKLPGIPIKIVMEAIQQASVAKKEILQIMNKTISKPRASRKENGPVVETVQVPLSKRAKFVGPGGYNLKKLQAETGVTISQVDEETFSVFAPTPSAMHEARDFITEICKDDQEQQLEFGAVYTATITEIRDTGVMVKLYPNMTAVLLHNTQLDQRKIKHPTALGLEVGQEIQVKYFGRDPADGRMRLSRKVLQSPATTVVRTLNDRSSIVMGEPISQSSSNSQ
notes: as for B2
On to B3, for which the binding result in data set [1] is listed as “binds”.

B4: human PNPASE double mutant R445E/R446E (enzyme, UniProt Q8TCS8 46-783, looked up)
chain: AVAVDLGNRKLEISSGKLARFADGSAVVQSGDTAVMVTAVSKTKPSPSQFMPLVVDYRQKAAAAGRIPTNYLRREIGTSDKEILTSRIIDRSIRPLFPAGYFYDTQVLCNLLAVDGVNEPDVLAINGASVALSLSDIPWNGPVGAVRIGIIDGEYVVNPTRKEMSSSTLNLVVAGAPKSQIVMLEASAENILQQDFCHAIKVGVKYTQQIIQGIQQLVKETGVTKRTPQKLFTPSPEIVKYTHKLAMERLYAVFTDYEHDKVSRDEAVNKIRLDTEEQLKEKFPEADPYEIIESFNVVAKEVFRSIVLNEYKRCDGRDLTSLRNVSCEVDMFKTLHGSALFQRGQTQVLCTVTFDSLESGIKSDQVITAINGIKDKNFMLHYEFPPYATNEIGKVTGLNEEELGHGALAEKALYPVIPRDFPFTIRVTSEVLESNGSSSMASACGGSLALMDSGVPISSAVAGVAIGLVTKTDPEKGEIEDYRLLTDILGIEDYNGDMDFKIAGTNKGITALQADIKLPGIPIKIVMEAIQQASVAKKEILQIMNKTISKPRASRKENGPVVETVQVPLSKRAKFVGPGGYNLKKLQAETGVTISQVDEETFSVFAPTPSAMHEARDFITEICKDDQEQQLEFGAVYTATITEIRDTGVMVKLYPNMTAVLLHNTQLDQRKIKHPTALGLEVGQEIQVKYFGRDPADGRMRLSRKVLQSPATTVVRTLNDRSSIVMGEPISQSSSNSQ
notes: as for B2
Regarding B4, in data set [2], the binding result is recorded as “binds”.

B5: human PNPASE mutant S484A (enzyme, UniProt Q8TCS8 46-783, looked up)
chain: AVAVDLGNRKLEISSGKLARFADGSAVVQSGDTAVMVTAVSKTKPSPSQFMPLVVDYRQKAAAAGRIPTNYLRREIGTSDKEILTSRIIDRSIRPLFPAGYFYDTQVLCNLLAVDGVNEPDVLAINGASVALSLSDIPWNGPVGAVRIGIIDGEYVVNPTRKEMSSSTLNLVVAGAPKSQIVMLEASAENILQQDFCHAIKVGVKYTQQIIQGIQQLVKETGVTKRTPQKLFTPSPEIVKYTHKLAMERLYAVFTDYEHDKVSRDEAVNKIRLDTEEQLKEKFPEADPYEIIESFNVVAKEVFRSIVLNEYKRCDGRDLTSLRNVSCEVDMFKTLHGSALFQRGQTQVLCTVTFDSLESGIKSDQVITAINGIKDKNFMLHYEFPPYATNEIGKVTGLNRRELGHGALAEKALYPVIPRDFPFTIRVTSEVLESNGSSAMASACGGSLALMDSGVPISSAVAGVAIGLVTKTDPEKGEIEDYRLLTDILGIEDYNGDMDFKIAGTNKGITALQADIKLPGIPIKIVMEAIQQASVAKKEILQIMNKTISKPRASRKENGPVVETVQVPLSKRAKFVGPGGYNLKKLQAETGVTISQVDEETFSVFAPTPSAMHEARDFITEICKDDQEQQLEFGAVYTATITEIRDTGVMVKLYPNMTAVLLHNTQLDQRKIKHPTALGLEVGQEIQVKYFGRDPADGRMRLSRKVLQSPATTVVRTLNDRSSIVMGEPISQSSSNSQ
notes: as for B2
Turning to B5, the binding result in data set [2] is given as “binds”.
